The values below come from article doi:10.1101/2020.07.13.201285 (bioRxiv, 2020).

The data set deals with the molecule itself. The experiment in a line: cross-linking.

B1: recombinant human glutamine:fructose-6-phosphate amidotransferase 2 with C-terminal HisTag (rhGFAT2-his) (enzyme, UniProt O94808 2-682, looked up)
chain: CGIFAYMNYRVPRTRKEIFETLIKGLQRLEYRGYDSAGVAIDGNNHEVKERHIQLVKKRGKVKALDEELYKQDSMDLKVEFETHFGIAHTRWATHGVPSAVNSHPQRSDKGNEFVVIHNGIITNYKDLRKFLESKGYEFESETDTETIAKLIKYVFDNRETEDITFSTLVERVIQQLEGAFALVFKSVHYPGEAVATRRGSPLLIGVRSKYKLSTEQIPILYRTCTLENVKNICKTRMKRLDSSACLHAVGDKAVEFFFASDASAIIEHTNRVIFLEDDDIAAVADGKLSIHRVKRSASDDPSRAIQTLQMELQQIMKGNFSAFMQKEIFEQPESVFNTMRGRVNFETNTVLLGGLKDHLKEIRRCRRLIVIGCGTSYHAAVATRQVLEELTELPVMVELASDFLDRNTPVFRDDVCFFISQSGETADTLLALRYCKDRGALTVGVTNTVGSSISRETDCGVHINAGPEIGVASTKAYTSQFISLVMFGLMMSEDRISLQNRRQEIIRGLRSLPELIKEVLSLEEKIHDLALELYTQRSLLVMGRGYNYATCLEGALKIKEITYMHSEGILAGELKHGPLALIDKQMPVIMVIMKDPCFAKCQNALQQVTARQGRPIILCSKDDTESSKFAYKTIELPHTVDCLQGILSVIPLQLLSFHLAVLRGYDVDFPRNLAKSVTVE
In the case of B1, the “stoichiometry N” value was found to be 4.
